doi:10.1101/2024.08.19.608714 (bioRxiv, 2024)

Biological target: the molecule itself
Assay: cryo-EM structure

B1: human XPR1 (natural protein)
chain: MKFAEHLSAHITPEWRKQYIQYEAFKDMLYSAQDQAPSVEVTDEDTVKRYFAKFEEKFFQTCEKELAKINTFYSEKLAEAQRRFATLQNELQSSLDAQKESTGVTTLRQRRKPVFHLSHEERVQHRNIKDLKLAFSEFYLSLILLQNYQNLNFTGFRKILKKHDKILETSRGADWRVAHVEVAPFYTCKKINQLISETEAVVTNELEDGDRQKAMKRLRVPPLGAAQPAPAWTTFRVGLFCGIFIVLNITLVLAAVFKLETDRSIWPLIRIYRGGFLLIEFLFLLGINTYGWRQAGVNHVLIFELNPRSNLSHQHLFEIAGFLGILWCLSLLACFFAPISVIPTYVYPLALYGFMVFFLINPTKTFYYKSRFWLLKLLFRVFTAPFHKVGFADFWLADQLNSLSVILMDLEYMICFYSLELKWDESKGLLPNNSEESGICHKYTYGVRAIVQCIPAWLRFIQCLRRYRDTKRAFPHLVNAGKYSTTFFMVTFAALYSTHKERGHSDTMVFFYLWIVFYIISSCYTLIWDLKMDWGLFDKNAGENTFLREEIVYPQKAYYYCAIIEDVILRFAWTIQISITSTTLLPHSGDIIATVFAPLEVFRRFVWNFFRLENEHLNNCGEFRAVRDISVAPLNADDQTLLEQMMDQDDGVRNRQKNRSWKYNQSISLRRPRLASQSKARDTKVLIEDTDDEANT
  stoichiometry N: 2
